Key:
MS2 coat protein [1] = experiment: apparent KD of MS2 coat protein, switch ON state; designed switch direction (-1 OFF switch, 1 ON switch): -1; higher = weaker reporter binding; conditions: FMN input: 0 or 200 uM; Eterna round: R93 (includes R88 designs)
In short: (§1)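 Illumina sequencing clusters served as templates for on-chip transcription of the designed RNA switches. SNAP-549-labelled MS2 coat protein was then titrated in twofold steps from 0.7 or 1.5 nM to 3 µM, allowing 0.8–1.5 h per step at first and 10–20 min per step later. The buffer held 100 mM Tris-HCl pH 7.5, 80 mM KCl and 4 mM MgCl2, without or with constant ligand. Apparent KD is the median per design of normalised cluster binding-curve fits.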

MS2 coat protein [2] = experiment: apparent KD of MS2 coat protein, switch OFF state (with FMN for OFF switches, without FMN for ON switches); designed switch direction (-1 OFF switch, 1 ON switch): -1; higher = weaker reporter binding; conditions: FMN input: 0 or 200 uM; Eterna round: R93 (includes R88 designs)
In short: as §1

MS2 coat protein [3] = experiment: apparent KD of MS2 coat protein; designed switch direction (-1 OFF switch, 1 ON switch): 1; higher = weaker reporter binding
In short: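 Each step of the titration lasted 0.8–1.5 h at the lowest concentration and 10–20 min at the highest. The protein, SNAP-549-labelled MS2 coat protein, went from 0.7 or 1.5 nM doubling to 3 µM over RNA switches transcribed on Illumina chips by stalled E. coli RNA polymerase. Normalised cluster fluorescence was curve-fitted, and the per-design median over clusters is given as apparent KD.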

[4] = input ligand: microRNA oligo, concentration not stated
[5] = Eterna round: R95, input ligand: microRNA oligo, concentration not stated
[6] = Eterna round: R95, input ligand: FMN 200 uM
[7] = Eterna round: R95, input ligand: none

Sequence | apparent KD of MS2 coat protein (MS2 coat protein [3]; input ligand: FMN 200 uM) | apparent KD of MS2 coat protein (MS2 coat protein [3]; [4]) | apparent KD of MS2 coat protein (MS2 coat protein [3]; input ligand: none) | apparent KD of MS2 coat protein (MS2 coat protein [3]; [5]) | also measured
GGGUCACAUGAGGAUCACCCAUGUAAGGAUAUGCUAGGGAUGGAAACCAUUACGCAACGCAGAAGGUACUAAAG [Janelle Amethyst 18 Mod 11 - Jieux - Exclusion 1] | – | – | – | – | apparent KD of MS2 coat protein (MS2 coat protein [1]): 0.0403 µM; apparent KD of MS2 coat protein (MS2 coat protein [2]): 0.059 µM
GUAGCAUACCGAGGAUAUUCAUAUUAUACAUGAGGAUCACCCAUGUAAGGCCGAUUACGGCCUUGGGAGAAGGCGGAAUGCUAC [Xeonanis - 20 Mod21] (Eterna round: R96, puzzle: Same State NG 2) | 0.0189 µM | 0.0682 µM | 0.105 µM | – | –
UGUUUGUUGUGAGGAUAUACAUACACCUUACAUGAGGAUCACCCAUGUUGUUACUUUGAUAGUUAGUAGAAGGCACUUGGUUAU [JR_SSNG2_Sub047] (Eterna round: R96, puzzle: Same State NG 2) | 0.0949 µM | 0.0916 µM | 0.14 µM | – | –
GGAUUGGAGGCAGGAUAUGGGCUCAGAACAUGAGGAUCACCCAUGUAAAACGGCGCGAUGCGCCACCAGAAGGGCCUCCGAUCG [Tiaonbira] (Eterna round: R96, puzzle: Same State NG 2) | 0.0128 µM | 0.0238 µM | 0.0373 µM | – | –
GAGAGACAUGAGGAUCACCCAUGUAGAAUAGAACAAGGAUAUGUGGAAGGCGGAGGAGAGACAGAAGGUGUAGGAG [JR_SS1_Sub055] (puzzle: Same State 1) | – | – | – | 0.064 µM | –
CCAUAACAGUGAGGAUAUUGUUGCGAUAAGUGACGAGAAGGCAUUUAUGUGAAAUAAACAUACAUGAGGAUCACCCAUGUUGUA [Omei SS(NG)1 Bv4] (Eterna round: R96, puzzle: Same State NG 1) | 0.0173 µM | 0.0167 µM | 0.0223 µM | – | –
UGUUGUAUUACAGGAUAUCUAUGAUUUUUAUAUAGAGAAGGGUAUUCACAUGAGGAUCACCCAUGUAUAUACGAGGAAGUUGUG [JMF's solution 68] (Eterna round: R96, puzzle: Same State NG 1) | – | 0.0396 µM | – | – | –
AAAGAAAACGCAGGAUAUACCCGGGAAACCGAGGUAGAAGGGUGAACCAAAACAAAACUAAAUAACAUGAGGAUCACCCAUGUC [Biarzara] (Eterna round: R96, puzzle: Same State NG 1) | 0.162 µM | 0.0127 µM | 0.132 µM | – | –
UGGCUCAGAGCAGGAUAUAUGUAAUAACAUGAGGAUCACCCAUGUGUCGAGCUUCGGCUCGACACAUAGAAGGGCUCUGAGCCA [SSNG2/2-B2] (Eterna round: R96, puzzle: Same State NG 2) | 0.0133 µM | 0.0292 µM | 0.0409 µM | – | –
UUGGUACAUGAGGAUCACCCAUGUGGGUCGGUCGCAGGAUAUGCCCGUGGGCGCUUGCGGGCAGAAGGGUGCCGUA [Same State1-X] (Eterna round: R96, puzzle: Same State 1) | 0.173 µM | 0.386 µM | 1 µM | – | –
GGCAGACAUGAGGAUCACCCAUGUCGGCCGUUAGGAGGAUAUCGGUGAUAUCUGUCUCGCCGAGAAGGUUUAAUUA [Onaterleza] (puzzle: Same State 1) | – | – | – | 0.00971 µM | –
ACAUGAGACCAAGGAUAUUUUGUACCUACAUGUGACAUGAGGAUCACCCAUGUGGUAAGUAUGAGGGAGAAGGUGGAGAUAUGU [Equivalence 24 - Jieux - Same State NG 2] (Eterna round: R96, puzzle: Same State NG 2) | 0.0543 µM | 0.0487 µM | 0.0737 µM | – | –
ACGCAGCUGGGUAAGGAUAUCGGUGGUAAAACAUGAGGAUCACCCAUGUCCGAAGCUCGGACUUCCGAGAAGGUGCCCGGCUGCG [Soinraesar Omei Mod 6] (puzzle: Same State 2) | – | – | – | 0.222 µM | apparent KD of MS2 coat protein (MS2 coat protein [3]; [6]): 0.0238 µM; apparent KD of MS2 coat protein (MS2 coat protein [3]; [7]): 0.218 µM
UUGCGGGCUUGAGGAUAUUGAGUACAUAUGUUUAACAUGAGGAUCACCCAUGUGGGUUGCGGUAUCGAGAAGGUAACUUCCUUC [salish99_SSNG2_r04_810] (Eterna round: R96, puzzle: Same State NG 2) | 0.19 µM | 0.146 µM | 0.157 µM | – | –
UACAAUCUAUCUGAGGAUAUCAUGCAUUACACAUGAGGAUCACCCAUGUGCAGGAAAACUGCAUAUGAGAAGGCAGAUAGAUUGU [salish99_ss2_r3_066] (puzzle: Same State 2) | – | – | – | 0.457 µM | apparent KD of MS2 coat protein (MS2 coat protein [3]; [6]): 0.0201 µM; apparent KD of MS2 coat protein (MS2 coat protein [3]; [7]): 0.472 µM
AUGUGGAAGCCACAGGAUAUACUAGGGUACACAUGAGGAUCACCCAUGUGCGGCUAAAAGUGCUAGUAGAAGGGUGGUAAAGAAA [Diartire] (puzzle: Same State 2) | – | – | – | 0.0125 µM | apparent KD of MS2 coat protein (MS2 coat protein [3]; [6]): 0.0138 µM; apparent KD of MS2 coat protein (MS2 coat protein [3]; [7]): 0.015 µM
